This passage reports 活病毒中和 ND50 (CPE抑制, Vero E6细胞) results from patent CN116178530A.

The experiment deals with SARS-CoV-2活病毒的刺突蛋白 (SARS-CoV-2) (UniProt P0DTC2). Put plainly: cell-based or functional assay.

With CB6 (antibody), the 活病毒中和 ND50 (CPE抑制, Vero E6细胞) came to 0.256 µg/mL.
